Data on eight substances can be found in paper doi:10.1101/2022.01.13.476208.

Test [1] addresses Wild-type GPIbα, residues 1-290, with Avi-tag, biotinylated. The test is described as follows: BLI. A general note: Biolayer interferometry detects binding as a change in optical thickness at a sensor tip.
The target in a further test is A1 short (human) (UniProt P04275). As to the kind of experiment: ITC.

Take “A1 short (from UniProt P04275 1264-1469) (domain or fragment)”: in test [1], the Kd (in general, the free concentration of one partner at which half of the binding sites on the other are occupied at equilibrium, for simple one-to-one binding) was 0.18 µM. In test [1], “A1+C (from UniProt P04275 1264-1486) (domain or fragment)” showed a fold lower affinity than A1 short of 2.5 fold. In test [1], “A1+N (from UniProt P04275 1238-1469) (domain or fragment)” gave a fold lower affinity than A1 short of 4.3 fold. Consider “A1+N+C (from UniProt P04275 1238-1486) (domain or fragment)”, for which, in test [1], the fold lower affinity than A1 short came out at 10 fold. In test [1], “A1+OGly+C (from UniProt P04275 1264-1489) (domain or fragment)” had a fold lower affinity than A1+C of 2 fold and a fold lower affinity than A1 without linkers of 6 fold. Take “A1+OGly+N (from UniProt P04275 1238-1469) (domain or fragment)”: in test [1], the fold lower affinity than A1+N was found to be 10 fold and the fold lower affinity than A1 without linkers was found to be 51 fold.

Take “A1+OGly+N+C (from UniProt P04275 1238-1489) (domain or fragment)”: in test [1], the Kd worked out at 9.2 µM, the fold increase in affinity in 10 mM against 150 mM NaCl is 20 fold, the fold increase in kon in 10 mM against 150 mM NaCl amounted to 7 fold and the fold lower affinity than with the O-glycosylated N-linker alone was 1.2 fold. Substance “Wild-type GPIbα, residues 1-290, without Avi-tag (domain or fragment)” had a fold higher affinity than A1+OGly+N+C in the test with A1 short (human) of 39 fold.
